system: Recombinant protein (SEQ ID NO: 1), modified from sculptin of the tick Amblyomma cajennense

Substance	hydrolysis of recombinant protein by serine protease (SDS-PAGE, 6 h)
factor Xa	factor Xa also converted the recombinant protein in fragments
plasmin	strip of 20-kDa completely disappeared in recombinant protein incubated by plasm in and trypsin
thrombin	strip intensity of 20-kDa (corresponding to non-digested recombinant protein) decreased and strips of lower molecular weight appeared in recombinant protein incubated by thrombin
trypsin	strip of 20-kDa completely disappeared in recombinant protein incubated by plasm in and trypsin
